Values quoted from earlier work as cited in paper PMC6120632.

Molecular target: Basigin (Homo sapiens) (UniProt P35613)
UniProt P35613, sequence (P35613 22-325): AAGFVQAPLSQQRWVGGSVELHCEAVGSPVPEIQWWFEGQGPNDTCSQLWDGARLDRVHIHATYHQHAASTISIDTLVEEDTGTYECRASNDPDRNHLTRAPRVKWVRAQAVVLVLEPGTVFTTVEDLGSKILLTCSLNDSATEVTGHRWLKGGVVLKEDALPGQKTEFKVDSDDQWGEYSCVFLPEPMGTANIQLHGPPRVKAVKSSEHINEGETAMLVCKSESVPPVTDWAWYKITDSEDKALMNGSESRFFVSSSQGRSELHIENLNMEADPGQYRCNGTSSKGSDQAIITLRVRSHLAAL

In the case of RH5 (from UniProt Q8IFM5), the Kd is listed as 1000 nM.
